Assay results: US9988424 (DUKE UNIVERSITY, dated 2018)
Residue numbers refer to the chain shown, from its start.

How the values were obtained:
[1] = target: B.con gp140CF; test: ELISA, OD405 at 10 ug/ml
[2] = target: T1, C.1086 gp140; test: ELISA, OD405 at 10 ug/ml
T1 construct: also called C.1086gp140C

[3] = target: C.CAP206 gp140CF.12 (HIV-1); test: ELISA, OD405 at 10 ug/ml
[4] = target: T2, A.9004SS V1V2 Tags; test: ELISA, OD405
T2 Env construct: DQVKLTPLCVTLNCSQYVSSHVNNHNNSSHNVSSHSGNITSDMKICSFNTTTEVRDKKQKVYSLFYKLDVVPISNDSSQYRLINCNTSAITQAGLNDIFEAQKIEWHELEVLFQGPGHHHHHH

[5] = target: B. 681-7 gp140C; test: ELISA, OD405
[6] = target: T3, B.62357 140C; test: ELISA, OD405
T3 construct: also called B.62357 gp140C

[7] = target: B.040 gp140C; test: ELISA, OD405
[8] = target: T4, B.con gp140CF; test: ELISA, OD405
T4 construct: also called B.con.env03 gp140CF

[9] = target: T5, D.9009SA V1V2 Tags; test: ELISA, OD405
T5 Env construct: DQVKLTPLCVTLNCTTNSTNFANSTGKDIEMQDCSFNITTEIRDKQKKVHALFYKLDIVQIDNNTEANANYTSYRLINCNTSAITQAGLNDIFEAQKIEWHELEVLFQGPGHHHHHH

[10] = target: T6, AE.97CNG2XF gp140CF (HIV-1); test: ELISA
T6 construct: also called E.97CNGX2F gp140CF

[11] = target: C.1086 gp120 (HIV-1); test: ELISA
[12] = target: T7, AE.92TH023 gp120 gD+ (HIV-1); test: ELISA
T7 construct: domain: gp120; also called AE.92TH023 gp12 gD+

[13] = target: T8, AE.A244 gD+ gp120 (HIV-1); test: ELISA
T8 construct: domain: gp120; also called AE.A244 gp120gD+

[14] = target: C.1086 gp120 (HIV-1); test: ELISA, OD405
[15] = target: B. 684-6 gp140C; test: ELISA, OD405
[16] = target: T9, C.1086 gp140; test: ELISA, OD405
T9 construct: also called C.1086gp140C

[17] = target: T10, B.62357 140C; test: ELISA OD405nm, bar chart, antibody concentration not given
T10 construct: also called B.62357 gp140C

[18] = target: T11, B.con env03 140CF; test: as above
T11 construct: also called B.con gp140CF

[19] = target: B.040 gp140C; test: as above
[20] = target: T12, G.con 140CF; test: as above
T12 construct: also called G.con gp140CF; G.con.env03 gp140CF

[21] = target: T13, AE.con env03 40CF; test: as above
T13 construct: also called AE.con gp140CF; AE.con.env03 gp140CF

[22] = target: T14, Con 6 120; test: as above
T14 construct: also called Con 6 gp120

[23] = target: T15, SIV CPZ US-1 gp140CF (SIVcpz); test: as above
T15 construct: also called US-1 SIVCPZ gp140CF
T15 chain: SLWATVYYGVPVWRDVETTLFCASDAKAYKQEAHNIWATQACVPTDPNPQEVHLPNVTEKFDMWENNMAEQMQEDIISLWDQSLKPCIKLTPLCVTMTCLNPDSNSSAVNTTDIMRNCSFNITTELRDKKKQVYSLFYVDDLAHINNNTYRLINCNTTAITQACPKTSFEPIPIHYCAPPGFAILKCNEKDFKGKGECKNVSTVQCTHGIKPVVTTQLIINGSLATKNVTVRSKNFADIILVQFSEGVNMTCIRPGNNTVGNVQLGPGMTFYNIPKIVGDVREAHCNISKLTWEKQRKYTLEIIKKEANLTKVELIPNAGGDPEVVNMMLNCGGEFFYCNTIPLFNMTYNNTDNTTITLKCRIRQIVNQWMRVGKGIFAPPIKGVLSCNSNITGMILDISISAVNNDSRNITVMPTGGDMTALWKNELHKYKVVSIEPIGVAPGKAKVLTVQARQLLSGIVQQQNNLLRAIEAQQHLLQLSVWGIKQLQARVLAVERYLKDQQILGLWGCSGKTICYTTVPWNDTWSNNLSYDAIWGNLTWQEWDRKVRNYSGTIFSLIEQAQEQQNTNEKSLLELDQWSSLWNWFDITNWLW

[24] = target: AE.con gp140CF; test: ELISA, OD405 at 10 ug/ml
[25] = target: B.040 gp140C; test: ELISA, OD405 at 10 ug/ml
[26] = target: T16, B.62357 gp140C; test: ELISA, OD405 at 10 ug/ml
T16 construct: also called B.62357 140C

[27] = target: B.con gp140CF; test: ELISA, OD405 at 10 ug/ml; remark: listed apart in the source
[28] = target: T1, C.1086 gp140; test: ELISA, OD405 at 10 ug/ml; remark: listed apart in the source
[29] = target: Con 6 gp120; test: ELISA, OD405 at 10 ug/ml
[30] = target: G.con gp140CF; test: ELISA, OD405 at 10 ug/ml

B1: PG9 reverted unmutated ancestor antibody (antibody, V domains shown)
VH: QVQLVESGGGVVQPGRSLRLSCAASGFTFSSYGMHWVRQAPGKGLEWVAVISYDGSNKYYADSVKGRFTISRDNSKNTLYLQMNSLRAEDTAVYYCAREAGGPDYRNGYNYYDFWSGYYNYYYMDVWGKGTTVTVSS
VL: QSALTQPASVSGSPGQSITISCTGTSSDVGSYNLVSWYQQHPGKAPKLMIYEVSKRPSGVSNRFSGSKSGNTASLTISGLQAEDEADYYCCSLTSTRRWVFGGGTKLTVL
notes: also called PG9 RUA; PG9_RUA
[1]
  binding result: no binding (tested: 10 ug/ml)
[2]
  binding result: no binding (tested: 10 ug/ml)
[3]
  binding result: no binding (tested: 10 ug/ml)

B2: PG16 (antibody, V domains shown)
VH: QEQLVESGGGVVQPGGSLRLSCLASGFTFHKYGMHWVRQAPGKGLEWVALISDDGMRKYHSDSMWGRVTISRDNSKNTLYLQFSSLKVEDTAMFFCAREAGGPIWHDDVKYYDFNDGYYNYHYMDVWGKGTTVTVSS
VL: QSALTQPASVSGSPGQTITISCNGTSSDVGGFDSVSWYQQSPGKAPKVMVFDVSHRPSGISNRFSGSKSGNTASLTISGLHIEDEGDYFCSSLTDRSHRIFGGGTKVTVL
notes: also called mAb PG16; bnAb PG16
[4]
  binding result: no binding (tested: 10 ug/ml)
[5]
  binding result: no binding (tested: 10 ug/ml)
[6]
  binding result: no binding (tested: 10 ug/ml)
[7]
  binding result: no binding (tested: 10 ug/ml)
[8]
  binding result: no binding (tested: 10 ug/ml)
[9]
  binding result: no binding (tested: 10 ug/ml)

B3: CH59 (antibody, V domains shown)
VH: EVQLVESGGGLVQPGRSLRLSCAASGFTFDDGAMHWVRQAPGKGLEWVSGISWNSNIIAYADSVKGRFTISRDNAKNSLYLEMNSLRVEDTALYYCAKDSPRGELPLNYWGQGTLVTVSS
VL: SYELTQPPSVSVSPGQTARITCSGDALPKNYAYWYQQKSGQAPVLVIYEDSKRPSGIPERFSGSSSGTMATLTISGAQVEDEADYYCYSTDSSGNHRVFGGGTKLTVL
notes: also called mAb CH59
[10]
  EC50: 0.066 µg/mL
[11]
  EC50: 0.02 µg/mL
[12]
  EC50: 0.023 µg/mL
[13]
  EC50: 0.01 µg/mL

B4: CH59 reverted unmutated ancestor antibody (antibody, V domains shown)
VH: B3 VH with G32Y, N56G, I57S, A59G, E82Q, V88A, L107F, N108D
VL: B3 VL with N30K
notes: also called CH59 RUA; CH59_RUA
[14]
  binding result: no binding (tested: 10 ug/ml)
[15]
  binding result: no binding (tested: 10 ug/ml)
[16]
  binding result: no binding (tested: 10 ug/ml)

B5: CH58 reverted unmutated ancestor antibody (antibody, V domains shown)
VH: EVQLVQSGAEVKKPGESLKISCKGSGYSFTSYWIGWVRQMPGKGLEWMGIIYPGDSDTRYSPSFQGQVTISADKSISTAYLQWSSLKASDTAMYYCARLGGRYYYDSSGYYYFDYWGQGTLVTVSS
VL: NFMLTQPHSVSESPGKTVTISCTRSSGSIASNYVQWYQQRPGSSPTTVIYEDNQRPSGVPDRFSGSIDSSSNSASLTISGLKTEDEADYYCQSYDSSSWVFGGGTKLTVL
notes: also called CH58 RUA; CH58_RUA
[17]
  binding result: no binding (tested: not given)
[18]
  binding result: no binding (tested: not given)
[19]
  binding result: no binding (tested: not given)
[20]
  binding result: no binding (tested: not given)
[21]
  binding result: no binding (tested: not given)
[22]
  binding result: no binding (tested: not given)
[23]
  binding result: no binding (tested: not given)
[24]
  binding result: no binding (tested: 10 ug/ml)
[25]
  binding result: no binding (tested: 10 ug/ml)
[26]
  binding result: no binding (tested: 10 ug/ml)
[27]
  binding result: no binding (tested: 10 ug/ml)
[28]
  binding result: no binding (tested: 10 ug/ml)
[29]
  binding result: no binding (tested: 10 ug/ml)
[30]
  binding result: no binding (tested: 10 ug/ml)
